Results published in the supplement of paper PMC10201428.
± gives the standard deviation of the averaged measurements.

Experiments:
[1] = system: VchCAST RNA-guided transposition machinery (E. coli BL21(DE3) host, lacZ target); test: relative integration efficiency (T-RL orientation) vs wild-type transposon end (log2 (normalized fold change)); transposon end mutated: right end (5 bp flank + 75 bp right end); higher = more efficient transposition
Procedure, shortened: (§1)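 In E. coli BL21(DE3), a T7-driven effector plasmid was paired with a pUC57 mini-transposon donor containing 1549 left-end or 1849 right-end barcoded transposon variants. Cells grew on plates with 0.1 mM IPTG at 37°C for 18 h. Relative integration efficiency was derived from Illumina reads of genomic integration junctions against input plasmids, as a log-transformed output/input barcode fold change normalised to reference barcodes.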

[2] = system: VchCAST RNA-guided transposition machinery (E. coli BL21(DE3) host, lacZ target); test: relative integration efficiency (T-LR orientation) vs wild-type transposon end (log2 (normalized fold change)); transposon end mutated: right end (5 bp flank + 75 bp right end); higher = more efficient transposition
Procedure, shortened: as §1

Row | Sequence | relative integration efficiency (log2) [1] | relative integration efficiency (log2) [2]
1 | ACATTTGTTGATACAACCATAAAATGATAATTACACCCTAAAATTGATAATTATCACACCCATAAATTGATATTGCCTCTGATCATAGTCAGACCAACATTGCTACGACCCGTATTCGCACCGACAC | -0.736 ± 0.05 | -1.14 ± 0.11
2 | ACATTTGTTGATACAACCATAAAATGATAATTACACCCTATTATTGATAATTATCACACCCATAAATTGATATTGCCTCTGATCATAGTCAGACCAACATTGCTACGACCCGTATTCGCACCGACAC | -0.713 ± 0.11 | -0.974 ± 0.13
3 | ACATTTGTTGATACAACCATAAAATGATAATTACACCGTATAATTGATAATTATCACACCCATAAATTGATATTGCCTCTGATCATAGTCAGACCAACATTGCTACGACCCGTATTCGCACCGACAC | -1.74 ± 0.11 | -1.63 ± 0.12
4 | ACATTTGTTGATACAACCATAAAATGATAATTACACCGTTAAATTGATAATTATCACACCCATAAATTGATATTGCCTCTGATCATAGTCAGACCAACATTGCTACGACCCGTATTCGCACCGACAC | -0.609 ± 0.084 | -1.18 ± 0.3
5 | ACATTTGTTGATACAACCATAAAATGATAATTACACGGATAAATTGATAATTATCACACCCATAAATTGATATTGCCTCTGATCATAGTCAGACCAACATTGCTACGACCCGTATTCGCACCGACAC | -0.265 ± 0.13 | -0.469 ± 0.21
6 | ACATTTGTTGATACAACCATAAAATGATAATTACACGGTAAAATTGATAATTATCACACCCATAAATTGATATTGCCTCTGATCATAGTCAGACCAACATTGCTACGACCCGTATTCGCACCGACAC | -1.85 ± 0.1 | -2.29 ± 0.055
7 | ACATTTGTTGATACAACCATAAAATGATAATTACAGGCATAAATTGATAATTATCACACCCATAAATTGATATTGCCTCTGATCATAGTCAGACCAACATTGCTACGACCCGTATTCGCACCGACAC | -0.00584 ± 0.032 | -0.52 ± 0.19
8 | ACATTTGTTGATACAACCATAAAATGATAATTACAGGGTTAAATTGATAATTATCACACCCATAAATTGATATTGCCTCTGATCATAGTCAGACCAACATTGCTACGACCCGTATTCGCACCGACAC | -1.5 ± 0.12 | -2.54 ± 0.42
9 | ACATTTGTTGATACAACCATAAAATGATAATTACCAAAATAAATTGATAATTATCACACCCATAAATTGATATTGCCTCTGATCATAGTCAGACCAACATTGCTACGACCCGTATTCGCACCGACAC | -0.773 ± 0.1 | -1.47 ± 0.039
10 | ACATTTGTTGATACAACCATAAAATGATAATTACCAAACGCCCGGTCGCCGGCGACACAAACGCCCGGTCGCGGTAAGAGGATCATAGTCAGACCAACATTGCTACGACCCGTATTCGCACCGACAC | -1.94 ± 0.27 | 0.864 ± 0.055
11 | ACATTTGTTGATACAACCATAAAATGATAATTACCACCATAAATTGATAATTATCACACCCATAAATTGATATTGCCTCTGATCATAGTCAGACCAACATTGCTACGACCCGTATTCGCACCGACAC | 0.0622 ± 0.17 | -0.372 ± 0.27
12 | ACATTTGTTGATACAACCATAAAATGATAATTACCACCCATAAATTGATAATTATCACACCCATTTAACTATAACGCTCTGATCATAGTCAGACCAACATTGCTACGACCCGTATTCGCACCGACAC | -0.999 ± 0.21 | 1.69 ± 0.051
13 | ACATTTGTTGATACAACCATAAAATGATAATTACCACCCATACATTGATAATTATCACACCCATTTAACTATAACGCTCTGATCATAGTCAGACCAACATTGCTACGACCCGTATTCGCACCGACAC | -2.43 ± 0.1 | 0.106 ± 0.04
14 | ACATTTGTTGATACAACCATAAAATGATAATTACCACCCCTAAATTGATAATTATCACACCCATTTAACTATAACGCTCTGATCATAGTCAGACCAACATTGCTACGACCCGTATTCGCACCGACAC | -3.13 ± 0.18 | -0.321 ± 0.18
15 | ACATTTGTTGATACAACCATAAAATGATAATTACCACCCCTACATTGATAATTATCACACCCATTTAACTATAACGCTCTGATCATAGTCAGACCAACATTGCTACGACCCGTATTCGCACCGACAC | -3.12 ± 0.17 | -0.0894 ± 0.12
16 | ACATTTGTTGATACAACCATAAAATGATAATTACCCCCATAAATTGATAATAATGACACCGAATTTAACTATAACGCTCTGATCATAGTCAGACCAACATTGCTACGACCCGTATTCGCACCGACAC | -1.7 ± 0.48 | 1.94 ± 0.1
17 | ACATTTGTTGATACAACCATAAAATGATAATTACCCCCATAAATTGATAATGATGACACCGAATTTAACTATAACGCTCTGATCATAGTCAGACCAACATTGCTACGACCCGTATTCGCACCGACAC | -1.63 ± 0.46 | 2.16 ± 0.067
18 | ACATTTGTTGATACAACCATAAAATGATAATTACCCCCATAAATTGATAATTATCACACCCCATTTAACTATAACGCTCTGATCATAGTCAGACCAACATTGCTACGACCCGTATTCGCACCGACAC | -0.917 ± 0.1 | 2.089 ± 0.0067
19 | ACATTTGTTGATACAACCATAAAATGATAATTACCCCCATAAATTGATAATTATCCCACCCAATTTAACTATAACGCTCTGATCATAGTCAGACCAACATTGCTACGACCCGTATTCGCACCGACAC | -1.15 ± 0.18 | 2.06 ± 0.12
20 | ACATTTGTTGATACAACCATAAAATGATAATTACCCCCATAAATTGATAATTATCCCACCCCATTTAACTATAACGCTCTGATCATAGTCAGACCAACATTGCTACGACCCGTATTCGCACCGACAC | -1.32 ± 0.25 | 1.82 ± 0.11
21 | ACATTTGTTGATACAACCATAAAATGATAATTACCCCCATAAATTGATAATTGTGACACCGAATTTAACTATAACGCTCTGATCATAGTCAGACCAACATTGCTACGACCCGTATTCGCACCGACAC | -1.79 ± 0.38 | 1.94 ± 0.097
22 | ACATTTGTTGATACAACCATAAAATGATAATTACCCCCATCAATTGATAATTATCACACCCAATTTAACTATAACGCTCTGATCATAGTCAGACCAACATTGCTACGACCCGTATTCGCACCGACAC | -2.23 ± 0.41 | 0.506 ± 0.048
23 | ACATTTGTTGATACAACCATAAAATGATAATTACCCCCATCAATTGATAATTATCACACCCCATTTAACTATAACGCTCTGATCATAGTCAGACCAACATTGCTACGACCCGTATTCGCACCGACAC | -2.27 ± 0.37 | 0.526 ± 0.33
24 | ACATTTGTTGATACAACCATAAAATGATAATTACCCCCATCAATTGATAATTATCCCACCCAATTTAACTATAACGCTCTGATCATAGTCAGACCAACATTGCTACGACCCGTATTCGCACCGACAC | -2.38 ± 0.22 | 0.511 ± 0.036
25 | ACATTTGTTGATACAACCATAAAATGATAATTACCCCCATCAATTGATAATTATCCCACCCCATTTAACTATAACGCTCTGATCATAGTCAGACCAACATTGCTACGACCCGTATTCGCACCGACAC | -2.78 ± 0.51 | 0.417 ± 0.32
26 | ACATTTGTTGATACAACCATAAAATGATAATTACTCTGACACCCATAAATTGATAATTATCACACCCATAAATTGATATTGCTCATAGTCAGACCAACATTGCTACGACCCGTATTCGCACCGACAC | -2.73 ± 0.083 | 0.8247 ± 0.0022
27 | ACATTTGTTGATACAACCATAAAATGATAATTACTCTGACACCCATAAATTGATAATTATCAGTGGGTATTTAACTATAACGTCATAGTCAGACCAACATTGCTACGACCCGTATTCGCACCGACAC | -2.06 ± 0.27 | 1.33 ± 0.1
